From US20220356245A1 (FORTY SEVEN, published 2022)
Read-outs that look alike come from different tables or passages of the source.

What was measured:
[1] = biological target: T1, human CD47 (hCD47) expressed on cells (human, UniProt Q08722 19-323); experiment: cell-based or functional assay
[2] = biological target: T2, hu-sCD47-6His; extracellular domain of human CD47 antigen with 6His-tag (human); experiment: SPR Biacore T200, antibody captured, hCD47-his analyte;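 note: antibodies captured on anti-IgG (Fc) CM5 chip, five sequential 10 min antigen injections at rising concentrations, reference flow cell and antigen-free cycle as controls, 1:1 model fit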
T2 construct: also called hCD47-his; soluble hCD47
From the text: (§1) An anti-human or anti-mouse IgG (Fc) was first immobilized on the surface of Serie S Sensor Chips CM5 using the human or mouse antibody capture and amine coupling kits, following the manufacturer's instructions (GE Healthcare). […] The mouse, chimerized or humanized antibodies to be tested were then captured onto the appropriate anti-mouse or anti-human IgG surface in all flow cells except flow cell 1 used as control, at concentration and contact time adjusted so that ˜300 RU were captured on the surface. Binding kinetics were studied by passing increasing concentrations of hCD47-his in a series of five 10 minute injections through all flow cells at a rate of 30 μL/min. […] Following the final injection, buffer was passed across each flow cell for 60 minutes (mouse) or 30 minutes (human) to monitor the dissociation of bound antigen. Regeneration of the binding surface was carried out at the end of the cycle by flowing 3 M MgCl₂ for 60 s at 20 μL/min followed by 10 mM glycine-HCl, pH 1.7 for 180 s at 10 μl/min (for human) or by flowing 10 mM glycine-HCl, ph 1.7 for 360 s at 10 μl/min (for mouse). A second cycle with the same antibodies but no antigen was run as a control. Kinetics binding constants were estimated by non-linear fitting of the sensogram data to the 1:1 binding model provided by the Biacore T200 evaluation software.

[3] = biological target: T2, hu-sCD47-6His; extracellular domain of …; experiment: SPR Biacore T200, antibody captured, hCD47-his analyte; exponent printed without minus sign, read as 10^-8
From the text: as §1

[4] = biological target: T3, mouse CD47 (mCD47) expressed on CHO cells (mouse, UniProt Q61735 19-303); experiment: flow cytometry, CHO-mCD47 cells
T3 construct: whole, on cells; also called CHO-mCD47
T3 sequence (looked up): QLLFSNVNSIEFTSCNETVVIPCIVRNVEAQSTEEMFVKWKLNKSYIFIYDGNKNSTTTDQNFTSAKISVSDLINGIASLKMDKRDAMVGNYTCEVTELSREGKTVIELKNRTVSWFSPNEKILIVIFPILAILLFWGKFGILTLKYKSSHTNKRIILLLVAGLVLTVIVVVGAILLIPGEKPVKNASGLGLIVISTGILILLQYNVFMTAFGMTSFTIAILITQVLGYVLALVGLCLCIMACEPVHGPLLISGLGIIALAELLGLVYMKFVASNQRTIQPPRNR

[5] = biological target: T1, human CD47 (hCD47) expressed on cells; experiment: flow cytometry, Raji cells
Method: (§2) Raji cells (ATCC-CLL-86; 2×10⁵ cells/well of 96-well plate) were first incubated at +4° C. for 30 minutes with serial dilutions of anti-CD47 antibodies or control isotype antibody (in mIgG2a or mIgG1 format). The cells were then washed and incubated for 30 minutes at +4° C. with a PE-conjugated F(ab)′2 goat anti-mouse IgG antibody ( 1/100 dilution, Beckman Coulter). After washings, the fluorescence of the cells was analyzed by flow cytometry on an Accuri-C6 flow cytometer (BD Biosciences).
(§3) The delta of MFI, representing the difference between the intensity measured with the tested antibody and the intensity in the absence of antibody, was calculated for each antibody concentration and the values were plotted against the antibody concentrations. The EC50 values were then calculated by using a nonlinear regression analysis model of the GraphPad Prism software.

[6] = biological target: T1, human CD47 (hCD47) expressed on cells; experiment: flow cytometry, hCD47-CHO cells, competition with His-hSIRPα
Method: Human CD47-transfected cells (3×10⁵ cells/well of 96-well plate) were first incubated at +4° C. for 30 minutes with serial dilutions of anti-CD47 antibodies or isotype control antibody (in mIgG2a or mIgG1 format). […] The percentage inhibition was plotted against antibody concentration and the IC50 values were calculated using a nonlinear regression analysis model of the GraphPad Prism software.

[7] = biological target: T1, human CD47 (hCD47) expressed on cells; experiment: flow cytometry, Raji cells; upper end tied to candidate 19 by Table 6
Method: as §2, §3

[8] = biological target: T1, human CD47 (hCD47) expressed on cells; experiment: flow cytometry, Raji cells, competition with His-hSIRPα; upper end tied to candidate 19 by Table 7
Method: (§4) The percent inhibition was plotted against antibody concentration and the IC50 values were calculated by using a nonlinear regression analysis model of the GraphPad Prism software.

[9] = biological target: T1, human CD47 (hCD47) expressed on cells; experiment: flow cytometry, Raji cells, competition with His-hSIRPα
Method: as §4

[10] = biological target: T2, hu-sCD47-6His; extracellular domain of …; experiment: SPR Biacore
[11] = biological target: T1, human CD47 (hCD47) expressed on cells; experiment: flow cytometry on Raji cells, hIgG4 format, delta MFI
[12] = biological target: T1, human CD47 (hCD47) expressed on cells; experiment: as above; remark: listed apart in the source
[13] = biological target: T4, N-deglycosylated soluble hCD47-His (PNGase treated) (human, N-glycans removed with PNGase); experiment: ELISA; against glycosylated hCD47-His
T4 construct: also called deglycosylated-hCD47; N-Deglycosylated hCD47-His
Method: (§5) The EC50 and EC95 values were calculated by using the non-linear regression/log (antibody) versus response (four parameters) model of the GraphPad Prism software.

[14] = biological target: T1, human CD47 (hCD47) expressed on cells; experiment: flow cytometry, Raji cells, competition with hSIRPα
[15] = biological target: T4, N-deglycosylated soluble hCD47-His …; experiment: ELISA, coated N-deglycosylated hCD47-His
[16] = biological target: T1, human CD47 (hCD47) expressed on cells; experiment: flow cytometry, Raji cells; remark: listed apart in the source
[17] = biological target: T1, human CD47 (hCD47) expressed on cells; experiment: flow cytometry on Raji cells, hIgG4 format: inhibition of hSIRPα binding to hCD47
[18] = biological target: T2, hu-sCD47-6His; extracellular domain of …; experiment: ELISA, one-site binding saturation fit, glycosylated hCD47
Method: (§6) The Bmax values were calculated by using the binding saturation/one-site binding model of the GraphPad Prism software (mean +/− SD of triplicates).

[19] = biological target: T1, human CD47 (hCD47) expressed on cells; experiment: flow cytometry, Raji cells, competition with hSIRPα; remark: listed apart in the source
[20] = biological target: T1, human CD47 (hCD47) expressed on cells; experiment: flow cytometry on Raji cells, hIgG4 format: inhibition of hSIRPα binding to hCD47; remark: listed apart in the source
[21] = biological target: T1, human CD47 (hCD47) expressed on cells; experiment: as above; remark: listed apart in the source
[22] = biological target: T2, hu-sCD47-6His; extracellular domain of …; experiment: SPR Biacore; head read as x 10^-4
From the text: as §1

[23] = biological target: T4, N-deglycosylated soluble hCD47-His …; experiment: ELISA, one-site binding saturation fit, deglycosylated hCD47
Method: as §6

[24] = biological target: T2, hu-sCD47-6His; extracellular domain of …; experiment: ELISA, coated glycosylated hCD47-His
Method: as §5

[25] = biological target: T1, human CD47 (hCD47) expressed on cells; experiment: flow cytometry, Raji cells; remark: listed apart in the source
[26] = biological target: T2, hu-sCD47-6His; extracellular domain of …; experiment: ELISA, one-site binding saturation fit, glycosylated hCD47; remark: listed apart in the source
Method: (§7) The equilibrium binding constant values were calculated by using the binding saturation/one-site binding model of the GraphPad Prism software (mean +/− SD of triplicates).

[27] = biological target: T1, human CD47 (hCD47) expressed on cells; experiment: flow cytometry on Raji cells, hIgG4 format: inhibition of hSIRPα binding to hCD47; remark: listed apart in the source
[28] = biological target: T4, N-deglycosylated soluble hCD47-His …; experiment: ELISA, one-site binding saturation fit, deglycosylated hCD47; remark: listed apart in the source
Method: as §7

[29] = biological target: T1, human CD47 (hCD47) expressed on cells; experiment: flow cytometry on Raji cells, hIgG4 format, delta MFI; remark: listed apart in the source
[30] = biological target: T1, human CD47 (hCD47) expressed on cells; experiment: as above; remark: listed apart in the source
[31] = biological target: T2, hu-sCD47-6His; extracellular domain of …; experiment: SPR Biacore; remark: listed apart in the source
From the text: as §1

[32] = biological target: T1, human CD47 (hCD47) expressed on cells; experiment: flow cytometry on Raji cells, hIgG4 format: inhibition of hSIRPα binding to hCD47; remark: listed apart in the source
[33] = biological target: T3, mouse CD47 (mCD47) expressed on CHO …; experiment: flow cytometry, CHO-mCD47 cells; remark: listed apart in the source
[34] = biological target: T1, human CD47 (hCD47) expressed on cells; experiment: flow cytometry on Raji cells, hIgG4 format, delta MFI; remark: listed apart in the source
[35] = biological target: T1, human CD47 (hCD47) expressed on cells; experiment: flow cytometry, Raji cells; lower end tied to candidate 15 by Table 6
Method: as §2, §3

[36] = biological target: T1, human CD47 (hCD47) expressed on cells; experiment: flow cytometry, CD47-transfected CHO cells

B1: Candidate 22 (VL008-AL13-8G5-8K3), mouse IgG (antibody, V domains shown)
VH: QVQLQQPGAELVKPGASVKLSCKASGYTFTTYWMHWVKQRPGQGLEWIGMIHPNSGTTNYNEKFKSKATLTVDKSSSSTYMQLSSLTSEDSAVYYCTRSHYYDGHFSYWGQGTLVTVSA
VL: DIVMSQSPSSLAVSAGEKVTMSCKSSQSLLNSRTRKNYLAWYQQKPGQSPKLLIYWASTRESGVPDRFTGSGSGTDFTLTISSVQAEDLAVYYCKQSYNLWTFGGGTRLEIK
notes: Recombinant mouse IgG2a or mIgG1 format, by assay; also called antibody 22
- Phagocytic index, Raji cells and human macrophages, antibody at 0.125 µg/mL [1]: 106 Raji cells ingested per 100 macrophages
- koff [2]: 0.000325 s⁻¹
- kon [2]: 20700 M⁻¹ s⁻¹
- Kd [3]: 15.7 nM
- binding result [4]: no binding (tested: 7.3 µg/mL highest concentration)
- EC50 [5]: 0.136 µg/mL
- IC50 [6]: 0.482 µg/mL

B2: Candidate 19 (VL008-AL17-7G1-7K6), mouse IgG (antibody, V domains shown)
VH: QVQLQQSGPELVKPGASVKISCKASVYTFTDYYINWVKQRPGQGLEWVGWIFPGSGLTYYNKKFKGKATLTVDKSSSTAYMLLSSLTSEDSAVYFCARPYYGSRWDYAMDYWGQGTSVTVSS
VL: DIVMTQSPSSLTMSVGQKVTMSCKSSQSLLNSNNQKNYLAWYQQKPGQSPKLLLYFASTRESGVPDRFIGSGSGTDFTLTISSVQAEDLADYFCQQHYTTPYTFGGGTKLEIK
notes: Recombinant mouse IgG2a or mIgG1 format, by assay
- Phagocytic index, Raji cells and human macrophages, antibody at 0.125 µg/mL [1]: 73.9 Raji cells ingested per 100 macrophages
- Kd [2]: 2.25 nM
- koff [2]: 0.000176 s⁻¹
- kon [2]: 79000 M⁻¹ s⁻¹
- binding result [4]: no binding (tested: 7.3 µg/mL highest concentration)
- EC50 [7]: 1.1 nM
- EC50 [5]: 0.165 µg/mL
- IC50 [6]: 0.858 µg/mL

B3: Candidate 19, chimeric hIgG format (hIgG1 or hIgG4) (antibody, V domains shown)
VH: QVQLQQSGPELVKPGASVKISCKASVYTFTDYYINWVKQRPGQGLEWVGWIFPGSGLTYYNKKFKGKATLTVDKSSSTAYMLLSSLTSEDSAVYFCARPYYGSRWDYAMDYWGQGTSVTVSS
VL: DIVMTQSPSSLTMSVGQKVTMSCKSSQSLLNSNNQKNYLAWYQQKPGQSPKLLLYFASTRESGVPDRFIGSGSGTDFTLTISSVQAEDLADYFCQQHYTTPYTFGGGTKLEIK
notes: also called Candidate 19 (hIgG format)
- IC50 [8]: 2.46 nM
- IC50 [9]: 0.369 µg/mL

B4: hIgG4 chimeric candidate 20 (mouse VH0/VL0, human Fcγ4-S228P and human Kappa backbone) (antibody, V domains shown)
VH: QVQLKQSGAELVRPGASVKLSCKASGYSFTDYYINWVKQRPGQGLEWIARIYPGIGNTYYNKKFKGKATLTAEKSSSTAYMQLNSLTSEDSAVYFCARGHYGRGMDYWGQGTSVTVSS
VL: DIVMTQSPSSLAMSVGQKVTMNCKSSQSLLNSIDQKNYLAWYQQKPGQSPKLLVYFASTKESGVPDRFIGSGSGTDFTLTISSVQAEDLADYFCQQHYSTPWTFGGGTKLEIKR
notes: hIgG4-S228P/kappa; also called Chim; 20; Chim 20
- Kd [10]: 3.22 nM
- kon [10]: 169000 M⁻¹ s⁻¹
- EC50 (read off the curve) [11]: ~0.1 µg/mL
- EC50 (read off the curve) [12]: ~0.1 µg/mL
- EC50 ratio Deglycosylated/Glycosylated [13]: 1.7 ratio
- EC95 ratio Deglycosylated/Glycosylated [13]: 5 ratio
- IC50 [14]: 0.138 µg/mL
- EC50 [15]: 0.0474 nM
- EC95 [15]: 3.33 nM
- EC50 [16]: 0.0751 µg/mL
- IC50 (read off the curve) [17]: ~0.2 µg/mL
- Bmax [18]: 2.9 OD value
- IC50 [19]: 0.11 µg/mL
- IC50 (read off the curve) [20]: ~0.2 µg/mL
- IC50 (read off the curve) [21]: ~0.2 µg/mL
- koff [22]: 0.000505 s⁻¹
- Bmax2 [23]: 2.2 OD value
- EC50 [24]: 0.028 nM
- EC95 [24]: 0.667 nM
- EC50 [25]: 0.15 µg/mL
- equilibrium binding constant [26]: 27.3 pM
- IC50 (read off the curve) [27]: ~0.2 µg/mL
- equilibrium binding constant [28]: 38.8 pM
- EC50 (read off the curve) [29]: ~0.1 µg/mL
- EC50 (read off the curve) [30]: ~0.1 µg/mL
- Kd [31]: 2.48 nM
- koff [31]: 0.000543 s⁻¹
- kon [31]: 225000 M⁻¹ s⁻¹
- IC50 (read off the curve) [32]: ~0.2 µg/mL
- binding result [33]: no binding
- EC50 (read off the curve) [34]: ~0.1 µg/mL

B5: Candidate 15 (VT008-AL6-18G1-18K21), mouse IgG (antibody, V domains shown)
VH: QVQLQQPGAELVKPGTSVKLSCKASGYTFINYWIHWVKQRPGRGLEWIGRIDPNTVDAKYNEKFKSKATLTVDKPSSIAYMQLSSLTSEDSAVYYCSRGGYTMDYWGQGTSVTVSS
VL: DVVMTQTPLSLPVSLGDQASISCRSSQSLVHSNGNTYLHWYLQKPGQSPTLLIYKVSNRFSGVPDRFSGSGSGTDFTLKISRVEAEDLGIYFCFQSTHVPWTFGGGTKLEIK
notes: as for B2
- EC50 [35]: 0.2 nM
- Phagocytic index, Raji cells and human macrophages, antibody at 0.125 µg/mL [1]: 74.4 Raji cells ingested per 100 macrophages
- Kd [2]: 4.24 nM
- koff [2]: 0.00239 s⁻¹
- kon [2]: 565000 M⁻¹ s⁻¹
- EC50 [5]: 0.031 µg/mL
- IC50 [6]: 0.605 µg/mL

B6: Candidate 29 (VT008-AL6-20G7-20K7), mouse IgG (antibody, V domains shown)
VH: QVQLQQSGTELAKPGASVKLSCKASGYTFINYWIYWVKERPGQVLEWIGYINPRSDDTKYNQKFRDRATLTADKSSTTAYLQLNSLTNDDSALYYCARGGFTMDFWGQGTSVTVSS
VL: DVVMTQTPLSLPVSLGDQASISCRSSQSLLHSNGNTYLHWYLQKPGQSPNLLIYKVSYRFSGVPDRFSGSGSGTDFTLKISRVEAEDLGVYFCSQGTHVPYTFGGGTKLEIK
- binding result [36]: binds
